Reference: PMC12043510

Key:
[1] = molecular target: GST–CP (rice stripe virus (RSV)); test: MST
[2] = molecular target: MBP–P2^1–786 (rice dwarf virus (RDV)); test: MST

**Q.** With “MBP–RBRL (from UniProt Q75LV6 1-540) (enzyme)” as the substance, how does the Kd [1] read?
**A.** Its Kd is 5.28 nM.

**Q.** What about the Kd [2] of the same substance?
**A.** The Kd was 183 nM.
